Experimental data published in US20240148841A1.

Target: human IgG (of human serum; IgG against AAV8 in AAV8 positive human serum pools CP16 and P1) (human)
Assay: cell-based or functional assay

B1: Xork1.3-Fc-HD-H435R (Fc fusion)
chain: MTLWADGVQVDDKDFKPSTENFGTNYLAAEYGIGKGYYDINKKFDGTDDDLCSGVVAANQLHWWLDRNKDYIEKYRQQSKDNGVTIGNTDIFELNKLHDEDQSNFFDFIKKSFGNKFLQPERLLNMYINGYGYLTSQDKAKTSQPSPSKLNFFQKVFKNNLLTDKTPINDIDEFSSQTKNALQNHKVLAVSFASIKNRGLGHVVTVWGADFDENGKVVALYVTDSDDRSKNIGNAKLGMKKLRIEVSAQDSSTIKLTGFEDKNSGGSLRHLYSLSTGEQIWKKYFEETEPKSSDKTHTCPPCPAPELLSSPSVFLFPPKPKDTLMISRTPEVTCVVVDVSHEDPEVKFNWYVDGVEVHNAKTKPREEQYNSTYRVVSVLTVLHQDWLNGKEYKCKVSNKALPAPIEKTISKAKGQPREPQVYTLPPSRDELTKNQVSLTCLVKGFYPSDIAVEWESNGQPENNYKTTPPVLDSDGSFFLYSKLTVDKSRWQQGNVFSCSVMHEALHNRYTQKSLSLSPG
Question: For B1, which SEAP levels in passively immunized mice (% lower than in non-immunized controls) is on record?
Answer: The SEAP levels in passively immunized mice (% lower than in non-immunized controls) was 20.
